In patent publication US9617344B2, “Fusion protein comprising targeting moiety, cleavage site, and cell membrane penetrating domain, and use thereof” (Samsung Electronics Co., Ltd., priority 2014, dated 2017):

Legend:
EGFR present in A431 = target: T1, EGFR present in A431 (Homo sapiens, UniProt P00533); experiment: Tumor cell targeting test (confocal imaging of protein binding to A431 cells); format: cell-based; conditions: A431 cells treated with 7.5 or 15 ug/ml for one hour; fluorescent imaging, FIG. 2; positive control Erbitux
T1 construct: EGFR present in A431; host or cells: A431

MDA-MB-231 xenograft = experiment: Anticancer effect in MDA-MB-231 xenograft mouse model; format: in vivo, BALB/c nude mouse; conditions: 75 uM/0.1 ml/mouse administered to the tumor tissue once a day
Method: To examine the anticancer effect of the conjugate of Example 2, a xenograft mouse model was employed. The xenograft mouse model was prepared by an […] injection of intractable breast cancer cell line MDA-MB-231 into breast tissue of 6-week old BALB/c nude mouse to form a tumor tissue.
In particular, 8×10^6 cells (in 0.08 ml of PBS with matrigel) of MDA-MB-231 (ATCC) were […] of 6-week old BALB/c nude mouse to prepare a xenograft mouse model (Orthotopic mouse model). When the tumor size reaches […], the xenograft mouse model was used in the following experiment.
The obtained results are shown in FIG. 7, and the degree (%) of tumor size reduction (tumor growth inhibition; TGI) compared to the buffer administered group calculated from the results of FIG. 7 was shown in Table 4: […]

A431 cells = experiment: Cell cycle arrest test (gene transfection, DNA content by FACS); format: cell-based; conditions: gene transfected into A431 cells with Lipofectamine 2000; compared to p16WT; FIGS. 3 and 4
Method: A vector containing a gene encoding ‘p16M7’ or ‘p16WT’ (wild-type) was transfected into A431 cells (ATCC) by liposomal transfection method using Lipofectamine 2000 (Invitrogen) (see Example 1). The transfection was performed according to a manual provided by Invitrogen. 24 hours after the transfection, the medium was exchanged with a fresh medium. At 24 hours 48 hours thereafter, DNA contents were measured by FACS.
After transfecting the p16M7 gene or p16WT gene into cells using Lipo2000, the presence of cell cycle arrest was observed. […] For labeling, pEGFP-C2 vector (Clontech) for p16WT and p16M7 (indicated as “p16 Mut” in FIG. 3). […] FIG. 4 contains graphs quantitatively showing the degree of cell cycle arrest of FIG. 3, wherein “% frequency” of Y axis refers to a value of cell population obtained through Flow jo software, each symbol in X axis refers to the follows: C2-6: using EGFP only (6 ul), C2-10: using EGFP only (10 ul), Mut: using p16M7 (6 ul or 10 ul) and WT: using p16WT (6 ul or 10 ul).

B1: Darpin: Negative control; Mock Darpin having no binding target; SEQ ID NO: 43 (protein)
chain: GSDLGKKLLEAARAGQDDEVRILMANGADVNAEDKVGLTPLHLAAMNDHLEIVEVLLKNGADVNAIDAIGETPLHLVAMYGHLEIVEVLLKHGADVNAQDKFGKTAFDISIDNGNEDLAEILQKLN
modifications: Synthetic Non-EGFR targeting DARPin
binding ability to EGFR present in A431 (EGFR present in A431): little binding ability

B2: D(EGFR)-M9R-p16M7: Comparison conjugate lacking MTS-NLS: SEQ ID NO: 7-SEQ ID NO: 26-SEQ ID NO: 2 (protein)
chain: DLGKKLLEAARAGQDDEVRILMANGADVNADDTWGWTPLHLAAYQGHLEIVEVLLKNGADVNAYDYIGWTPLHLAADGHLEIVEVLLKNGADVNASDYIGDTPLHLAAHNGHLEIVEVLLKHGADVNAQDKFGKTAFDISIDNGNEDLAEILQSGKIPRTLTAMEPAAGSSMEPSADKLATAAARGRVEEVRALLEAGADPNAPNSYGRRPIQVMMMGSARVAELLLKHGAEPNSADPATSTRPVHDAAREGFLDTLVVLHRAGARLDARDAWGRTPVDLAEELGHRDVARYLRAAAGGTRGSNHARIDAAEGPSDIPD
modifications: Synthetic anti-EGFR DARPin-01; Synthetic MMP9 cleavage region; Synthetic Human p16 Variant
degree (%) of tumor size reduction (tumor growth inhibition; TGI) compared to the buffer administered group (MDA-MB-231 xenograft; n=10, calculated from FIG. 7): 50.0%

B3: D(EGFR)-M9R-MTS-NLS-p16M7: Conjugate: anti-EGFR DARPin (SEQ ID NO: 7), MMP9 cleavage site M9R, MTS-NLS fusion peptide, p16 variant p16M7; SEQ ID NO: 35 (protein)
chain: DLGKKLLEAARAGQDDEVRILMANGADVNADDTWGWTPLHLAAYQGHLEIVEVLLKNGADVNAYDYIGWTPLHLAADGHLEIVEVLLKNGADVNASDYIGDTPLHLAAHNGHLEIVEVLLKHGADVNAQDKFGKTAFDISIDNGNEDLAEILQSGKIPRTLTAAAVALLPAVLLALLAPKKKRKMEPAAGSSMEPSADKLATAAARGRVEEVRALLEAGADPNAPNSYGRRPIQVMMMGSARVAELLLKHGAEPNSADPATSTRPVHDAAREGFLDTLVVLHRAGARLDARDAWGRTPVDLAEELGHRDVARYLRAAAGGTRGSNHARIDAAEGPSDIPD
modifications: Synthetic Conjugate (anti-EGFR DARPin-M9R- MTS-NLS-p16M7)
increased anticancer effect compared to the control [Darpin(EGFR)] (MDA-MB-231 xenograft; versus D(EGFR) group): about 21.4%

B4: p16M7: Human p16 protein variant with seven substitutions for improved solubility (SEQ ID NO: 2) (protein)
chain: MEPAAGSSMEPSADKLATAAARGRVEEVRALLEAGADPNAPNSYGRRPIQVMMMGSARVAELLLKHGAEPNSADPATSTRPVHDAAREGFLDTLVVLHRAGARLDARDAWGRTPVDLAEELGHRDVARYLRAAAGGTRGSNHARIDAAEGPSDIPD
modifications: Synthetic Human p16 Variant
cell cycle arrest effect (A431 cells): maintaining the cell cycle arrest effect
